Results from publication PMC4856591 (Structure (London, England : 1993), 2016).

Target: the molecule itself
Test: SAXS

B1: Human PKG Iβ LZ:CNB-A/B (residues 1-369) (domain or fragment, UniProt Q13976-2 1-369, looked up)
chain: MGTLRDLQYALQEKIEELRQRDALIDELELELDQKDELIQKLQNELDKYRSVIRPATQQAQKQSASTLQGEPRTKRQAISAEPTAFDIQDLSHVTLPFYPKSPQSKDLIKEAILDNDFMKNLELSQIQEIVDCMYPVEYGKDSCIIKEGDVGSLVYVMEDGKVEVTKEGVKLCTMGPGKVFGELAILYNCTRTATVKTLVNVKLWAIDRQCFQTIMMRTGLIKHTEYMEFLKSVPTFQSLPEEILSKLADVLEETHYENGEYIIRQGARGDTFFIISKGTVNVTREDSPSEDPVFLRTLGKGDWFGEKALQGEDVRTANVIAAEAVTCLVIDRDSFKHLIGGLDDVSNKAYEDAEAKAKYEAEAAFFAN
B1: binds.
